Our source for the Kd values is PMC10615782.

The target of this test is Chikungunya virus-like particles (strain 37997) (chikungunya virus) (UniProt Q8JUX5). The test is described as follows: BLI. Background: Biolayer interferometry detects binding as a change in optical thickness at a sensor tip.

As for “Monovalent mouse MXRA8 cleaved from the Fc fusion (from UniProt Q9DBV4 22-336) (domain or fragment)”, the Kd was found to be 68 nM.

One may read the Kd as the equilibrium constant for the complex coming apart. The low end stands for a tighter complex, the high end for a looser complex.
